Laboratory results reported in US20180016312A1 (Pieris, published 2018).
Numbering of substitutions follows the chain as printed.

T1: human angiopoietin-2 (human, UniProt O15123 19-496, limits assumed)
T1 sequence (looked up): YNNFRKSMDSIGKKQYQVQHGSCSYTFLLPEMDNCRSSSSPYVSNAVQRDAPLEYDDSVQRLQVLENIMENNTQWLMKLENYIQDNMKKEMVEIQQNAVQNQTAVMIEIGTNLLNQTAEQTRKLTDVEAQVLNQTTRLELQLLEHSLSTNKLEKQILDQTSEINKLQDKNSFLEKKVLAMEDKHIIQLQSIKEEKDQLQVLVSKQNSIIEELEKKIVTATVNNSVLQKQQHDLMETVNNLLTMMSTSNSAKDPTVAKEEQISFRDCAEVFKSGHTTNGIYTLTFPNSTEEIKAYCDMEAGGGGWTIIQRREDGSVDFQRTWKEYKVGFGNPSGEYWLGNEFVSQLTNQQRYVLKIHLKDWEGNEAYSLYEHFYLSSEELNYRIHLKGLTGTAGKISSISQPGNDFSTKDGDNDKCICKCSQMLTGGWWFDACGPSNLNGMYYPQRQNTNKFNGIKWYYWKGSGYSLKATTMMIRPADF

T2: mouse angiopoietin-2 (mouse, UniProt O35608 19-496, limits assumed)
T2 construct: Bought recombinant protein; also called mouse Ang-2; mAng-2
T2 sequence (looked up): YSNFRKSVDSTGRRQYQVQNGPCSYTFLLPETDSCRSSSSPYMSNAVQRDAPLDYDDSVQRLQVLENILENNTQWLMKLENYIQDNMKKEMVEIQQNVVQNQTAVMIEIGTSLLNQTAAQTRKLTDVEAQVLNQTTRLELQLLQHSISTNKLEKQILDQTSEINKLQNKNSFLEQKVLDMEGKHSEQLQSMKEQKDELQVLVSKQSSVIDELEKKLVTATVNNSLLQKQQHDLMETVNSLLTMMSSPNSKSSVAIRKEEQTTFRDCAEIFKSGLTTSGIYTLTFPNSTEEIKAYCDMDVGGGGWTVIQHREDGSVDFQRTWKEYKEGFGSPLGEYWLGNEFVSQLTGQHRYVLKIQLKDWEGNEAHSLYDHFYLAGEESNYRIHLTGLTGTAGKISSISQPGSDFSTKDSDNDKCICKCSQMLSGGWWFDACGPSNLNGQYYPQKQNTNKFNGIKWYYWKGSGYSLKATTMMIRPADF

B1: benchmark antibody 1 (SEQ ID NOs: 17/18) (antibody, human IgG1, lambda, V domains shown)
VH: not shown
VL: QPGLTQPPSVSVAPGQTARITCGGNNIGSKSVHWYQQKPGQAPVLVVYDDSDRPSGIPERFSGSNSGNTATLTISRVEAGDEADYYCQVWDSSSDHYVFGTGTKVTVLG
B2: hNGAL lipocalin mutein SEQ ID NO: 3 (designed binder)
chain: QDSTSDLIPAPPLSKVPLQQNFQDNQFHGKWYVVGVAGNWYLREDKDPIKMTATIYELKEDKSYNVTQVGFEQKKCKYSIHTFVPGSQPGEFTLGDIKSWPGDTSLLVRVVSTNYNQHAMVFFKGVMQNREVFAITLYGRTKELTSELKENFIRFSKSLGLPENHIVFPVPIDQCIDGSAWSHPQFEK
notes: Mutein of mature hNGAL
B3: hNGAL lipocalin mutein SEQ ID NO: 9 (designed binder)
chain: QDSTSDLIPAPPLSKVPLQQNFQDNQFHGKWYVVGHAGNYILREDKDPGKMWATIYELKEDKSYDVTEVSFGPKKCNYRIWTFVPGSQPGEFTLGGIKSPPGGTSTLVRVVSTNYNQHAMVFFKHVLQNREFFEITLYGRTKELTSELKENFIRFSKSLGLPENHIVFPVPIDQCIDGSAWSHPQFEK
notes: Mutein of mature hNGAL; Biotinylated with NHS-PEG4-Biotin for the SPR assay
B4: hNGAL lipocalin mutein SEQ ID NO: 1 (designed binder)
chain: B3 chain with H36Q, D65N, E68G, R79T
notes: Mutein of mature hNGAL
B5: hNGAL lipocalin mutein SEQ ID NO: 2 (designed binder)
chain: QDSTSDLIPAPPLSKVPLQQNFQDNQFHGKWYVVGFAGNHRLREDKDPGKMHATIYELKEDKSYNVTDVTFAFKKCNYRIHTFVPGSQPGEFTLGNIKSWPGETSTLVRVVSTNYNQHAMVFFKTVMQNREWFWITLYGRTKELTSELKENFIRFSKSLGLPENHIVFPVPIDQCIDGSAWSHPQFEK
notes: Mutein of mature hNGAL
B6: hNGAL lipocalin mutein SEQ ID NO: 5 (designed binder)
chain: QDSTSDLIPAPPLSKVPLQQNFQDNQFHGKWYVVGQAGNYWLREDKDPIKMSATIYELKEDKSYNVTIVYFTRKKCSYRIYTFVPGSQPGEFTLGPIKSYPGDTSTLVRVVSTNYNQHAMVFFKHVYQNREWFEITLYGRTKELTSELKENFIRFSKSLGLPENHIVFPVPIDQCIDGSAWSHPQFEK
notes: Mutein of mature hNGAL
B7: hNGAL lipocalin mutein SEQ ID NO: 13 (designed binder)
chain: B2 chain with N65D, K74E, L106P, V126M, N129D
notes: Mutein of mature hNGAL
B8: hNGAL lipocalin mutein SEQ ID NO: 14 (designed binder)
chain: B2 chain with V36M, Y41D, N65D, G70A, D96Q, L106P
notes: Mutein of mature hNGAL
B9: hNGAL lipocalin mutein SEQ ID NO: 12 (designed binder)
chain: B2 chain with N65D, K74E, D96N, L106P, N116D, N129D
notes: Mutein of mature hNGAL
B10: hNGAL lipocalin mutein SEQ ID NO: 10 (designed binder)
chain: B3 chain with H36Q, G49Q, E68G, P73A, N77V
notes: Mutein of mature hNGAL
B11: hNGAL lipocalin mutein SEQ ID NO: 6 (designed binder)
chain: B3 chain with H36Q, G49E, E68G, P100S, G103Q
notes: Mutein of mature hNGAL
B12: hNGAL lipocalin mutein SEQ ID NO: 4 (designed binder)
chain: QDSTSDLIPAPPLSKVPLQQNFQDNQFHGKWYVVGEAGNVELREDKDPVKMTATIYELKEDKSYNVTEVRFWLKKCKYNIHTFVPGSQPGEFTLGAIKSGPGMTSTLVRVVSTNYNQHAMVFFKTVMQNREWFWITLYGRTKELTSELKENFIRFSKSLGLPENHIVFPVPIDQCIDGSAWSHPQFEK
notes: Mutein of mature hNGAL

Target: T1, human angiopoietin-2
Assay: cell-based or functional assay

| Binder | IC50 mean, LEC proliferation assay (CellTiter-Glo) |
| --- | --- |
| B1 | 0.0668 nM |
| B2 | 2.81 nM |
| B3 | 0.142 nM |
| B4 | 2.25 nM |

Target: T1, human angiopoietin-2
Assay: ELISA; Ang-2 coated, mutein detected by anti-Streptag-HRP
Experimental: Binding of muteins was tested by a sandwich ELISA assay.
20 μl of serially diluted muteins were incubated in PBS-T/BSA for 1h at room temperature (RT).
The residual supernatants were discarded and 20 μl HRP-labeled anti-Streptag antibody was added at a predetermined optimal concentration in PBS-T/BSA and incubated for 1 h at RT. After washing, 20 μl fluorogenic HRP substrate (QuantaBlu, Thermo) was added to each well, and the reaction was allowed to proceed for 15 to 60 minutes. The fluorescence intensity of every well on the plate was read using a fluorescence microplate reader (Tecan or Molecular Devices). Curve fitting was performed using GraphPad Prism 4 software.

| Binder | EC50 |
| --- | --- |
| B5 | 3 nM |
| B2 | 2.8 nM |
| B3 | 2.1 nM |
| B4 | 3.7 nM |
| B6 | 3.5 nM |

Target: T2, mouse angiopoietin-2
Assay: competition cell ECL; mAng-2 pre-incubated with binder, free Ang-2 captured on HEK:hTie-2 cells (competitor)
Experimental: (§1) All incubation steps were performed at room temperature, and the plate was washed after each incubation step with 80 μl PBS buffer for two times using a Biotek EL405 select CW washer (Biotek). In the first step, a 384 well plate was precoated for 5 minutes with poly D lysine and washed twice with PBS. 10⁴ HEK:hTie-2 cells per well were seeded and allowed to adhere to the surface of the wells overnight at 37° C. . After washing, cell coated wells were blocked with 60 μl PBS/Casein (2% Casein in PBS) for 1 h at room temperature.
(§2) After washing, 35 μl surfactant-free reading buffer was added to each well and the ECL signal of every well was read using a Mesoscale Discovery reader.

| Binder | IC50 |
| --- | --- |
| B7 | 7.34 nM |
| B8 | 2.32 nM |
| B9 | 3.12 nM |
| B2 | 23.2 nM |
| B3 | 1.39 nM |
| B4 | 3.98 nM |
| B10 | 1.05 nM |
| B11 | 1.21 nM |

Target: T1, human angiopoietin-2
Assay: competition cell ECL; hAng-2 pre-incubated with binder, free Ang-2 captured on HEK:hTie-2 cells (competitor)
Experimental: as §1, §2

| Binder | IC50 |
| --- | --- |
| B7 | 5.43 nM |
| B8 | 6.41 nM |
| B9 | 5.29 nM |
| B2 | 10.7 nM |
| B3 | 3.82 nM |
| B4 | 18.9 nM |
| B10 | 4.63 nM |
| B11 | 3.46 nM |

Target: T1, human angiopoietin-2
Assay: SPR Biacore T200; biotinylated mutein captured, hAng-2 analyte, 1:1 model, 25 C
Experimental: In the SPR affinity assay, biotinylated muteins and negative control were captured on a sensor chip CAP using the Biotin CAPture Kit (GE Healthcare): Sensor Chip CAP is pre-immobilized with an ssDNA oligo. Undiluted Biotin CAPture Reagent (streptavidin conjugated with the complementary ss-DNA oligo) was applied at a flow rate of 2 μl/min for 300 s. Subsequently, 0.02 μg/mL of biotinylated muteins or negative control were applied for 300 s at a flow rate of 5 μl/min. […] The reference channel was loaded with Biotin CAPture Reagent only.
Applying a flow rate of 30 μL/min, a multi cycle kinetics approach was used with a sample contact time of 180 s and a dissociation time of 4600 s. All measurements were performed at 25° C. […] Data were evaluated with Biacore T200 Evaluation software (V 1.0). Double referencing was used. A 1:1 Binding model was used to fit the raw data even though the analyte was known to be a multimer.

| Binder | Kd | koff |
| --- | --- | --- |
| B3 | 0.29 nM | 9.4e-05 s⁻¹ |

Target: T1, human angiopoietin-2
Assay: competition ELISA; 0.5 nM hAng-2 pre-incubated with binder, free hAng-2 captured on hTie-2 Fc (competitor)
Experimental: All incubation steps were performed with shaking at 300 rpm, and the plate was washed after each incubation step with 80 μl PBS-T buffer (PBS, 0.05% Tween 20) for five times using a Biotek EL405 select CW washer (Biotek). In the first step, a 384 well plate was directly coated with 20 μl of soluble human hTie-2 Fc (Reliatech) at a concentration of […] in PBS over night at 4 ° C. After washing, h Tie-2 Fc coated wells were blocked with 60 μl PBS-T/BSA (2% BSA in PBS containing 0.1% Tween 20) for 1 h at room temperature.
Curve fitting was performed using GraphPad Prism 4 software.

| Binder | IC50 |
| --- | --- |
| B1 | 0.0158 nM |
| B5 | 1.71 nM |
| B7 | 0.184 nM |
| B8 | 0.105 nM |
| B9 | 0.131 nM |
| B2 | 0.319 nM |
| B3 | 0.0929 nM |
| B4 | 0.558 nM |
| B10 | 0.0794 nM |
| B11 | 0.0627 nM |
| B6 | 0.861 nM |
| B12 | 0.412 nM |
